Laboratory results published in patent US20130177579A1 (BIOALLIANCE C V, published 2013).

B1: antibody 6-90 (antibody, mouse IgM, V domains shown)
VH: EVELQQFGIEMVKPGASVKISCKASGYIFTDYHMDWVRQSHGKSLEWIGDIDPKYDRVTYNQKFKGKASLTADKSSSTAYMELRSLTSEDTAVYYCAKTGAYGDYLAYWGQGTLVTVSA
VL: DLVMTQTPLSLPVSLGDQASISCRSSQSLVHSDGNTYFYWYLQKPGQSPKLLIYKVSNRFSGVPDRFSAGGSGTYFTLKISRVEAEDLGVYFCSQTTHFPPTFGGGTKLEIKR
notes: Mouse IgM, kappa from a hybridoma; tested as hybridoma culture supernatant
B2: antibody 55-31 (antibody, mouse IgM, V domains shown)
VH: QVQLQQPGAELVKPGTSVKLSCKASGYNFTSYWINWVKLRPGQGLEWIGDIYPGSGSTNYNEKFKSKATLTVDTSSSTAYMQLSSLASEDSALYYCARSAYRYDWFAYWGQGTLVTVSA
VL: DIQMTQSPASLSVSVGETVTITCRASENIYSNLAWYQQKQGKSPQLLVYAATNLADGVPSRFSGSGSGTQYSLKINSLQSEDFGSYYCQHFWGTPYTFGGGTKLEIKR
notes: as for B1
B3: antibody 122-72 (antibody, V domains shown)
VH: EVQLVESGGGLVQPKGSLKLSCAASGFTFNTYAMNWVRQAPGKGLEWVARIRSKSNNYATYYADSVKDRFTISRDDSQSMLYLQMNNLKTEDTAMYYCVAYGSRNYWGQGTTLTVSS
VL: DIVMTQSPSSLTVTAGEKVTMSCKSSQSLLNSGNQKNYLTWYQQKPGQPPKLLIYWASTRESGVPDRFTGSGSGTDFTLTISSVQAEDLAVYYCQNDYSYPYTFGGGTKLEIKR
notes: Mouse IgM, kappa from a hybridoma; tested as hybridoma culture supernatant; Antibody 60-43 is said to have the same CDRs

What was measured:
[1] = biological target: human transferrin receptor expressed by nonhematopoietic cancer cells (human) (UniProt P02786); test: FACS, H358 cells, 1X
[2] = biological target: human transferrin receptor expressed by nonhematopoietic cancer cells (human) (UniProt P02786); test: cell-based or functional assay
[3] = biological target: human transferrin receptor expressed by nonhematopoietic cancer cells (human) (UniProt P02786); test: FACS, DLD-1 cells, 1/5X
[4] = biological target: human transferrin receptor expressed by nonhematopoietic cancer cells (human) (UniProt P02786); test: FACS, SU.86.86 cells, 1/5X
[5] = biological target: human transferrin receptor expressed by nonhematopoietic cancer cells (human) (UniProt P02786); test: FACS, Panc02.03B cells, 1/5X
[6] = biological target: T1, human transferrin receptor expressed by normal human cells (RBC, PMN, lymphocytes, monocytes, platelets, … (human, UniProt P02786 1-760)); test: FACS, HUVEC, 1/10x
T1 construct: The assay is whole-cell FACS on normal donor cells; also called TfR on normal cells
Method: (§1) The hyper-immuned serum (Hyp-serum) or the corresponding cell marker antibodies for certain cell types were included as positive controls.
(§2) 1×10⁵ cells were seeded in each well of a v-bottomed 96-well plate and incubated with 50 μl of hybridoma culture supernatant at 1× and 10× dilution, or isotype control antibody mouse IgM, κ (BD™, Cat. No. 557275) at concentration of 1 μg/ml. A 300× dilution of human cell hyper-immune serum was used as binding positive control for all cell types. PE-conjugated anti-human CD41a (Southern Biotech™, Cat. No. 9391-09) was used as a positive control for staining human platelets. Anti-sialyl Lewis x antibody (Millipore™, Cat. No. MAB2096) was used as a positive control for staining human PMN. Anti-human CD31 (Hycult™, Cat. No. HM2039) was used as a positive control for staining HUVEC. After 30 minutes incubation at 4° C., cells were washed twice with 200 μl FACS buffer (1×PBS containing 1% FBS), stained with 50 μl of 1 μg/ml goat F(ab′)2-anti-mouse IgG(H+L)-PE (Southern Biotech™, Cat. No. 1032-09) or 1 μg/ml goat F(ab′)2-anti-mouse IgM(H+L)-PE (Southern Biotech™, Cat. No. 1022-09) in FACS buffer. After 30 minutes of incubation at 4° C., cells were washed twice with FACS buffer and analyzed by flow cytometry (BD LSR, BD Life Sciences).

[7] = biological target: T2, human transferrin receptor expressed by Jurkat cells (human, UniProt P02786 1-760); test: FACS, Jurkat cells, 1X
T2 construct: Endogenous receptor on Jurkat cells; MEM189 was the positive control; also called TfR on T leukemia cell line Jurkat

[8] = biological target: T1, human transferrin receptor expressed by …; test: FACS, PMN, donor D005, 1x
Method: as §1, §2

[9] = biological target: T1, human transferrin receptor expressed by …; test: FACS, PMN, donor D102, 1x
Method: (§3) Preparation of PBMC and PMN: The whole blood was diluted with an equal volume of PBS and mixed with 1/10 volume of 15% Dextran solution. […] After centrifugation at 2200 rpm for 15 min (rotor: SORVALL, PN11788 and centrifuge: SORVALL, RT7), PBMC concentrated in the interface, were collected and washed with large volumes of FACS buffer (2% FBS in PBS) for future use. The PMN-rich pellet was collected, from which residual RBC was removed by hypotonic lysis in 0.2% NaCl.
as §2

[10] = biological target: T1, human transferrin receptor expressed by …; test: FACS, RBC, donor D102, 1x
Method: as §1, §2

[11] = biological target: T2, human transferrin receptor expressed by …; test: FACS, Jurkat cells, 1/10X
[12] = biological target: T1, human transferrin receptor expressed by …; test: FACS, PMN, donor D005, 1/10x
Method: as §3, §2

[13] = biological target: T1, human transferrin receptor expressed by …; test: FACS, PMN, donor D014, 1/10x
Method: as §3, §2

[14] = biological target: T1, human transferrin receptor expressed by …; test: FACS, monocytes, donor D016, 1x
Method: as §1, §2

[15] = biological target: T1, human transferrin receptor expressed by …; test: FACS, lymphocytes, donor D014, 1x
Method: as §3, §2

[16] = biological target: T1, human transferrin receptor expressed by …; test: FACS, lymphocytes, donor D102, 1x
Method: as §3, §2

[17] = biological target: T1, human transferrin receptor expressed by …; test: FACS, monocytes, donor D005, 1/10x
Method: as §3, §2

[18] = biological target: T1, human transferrin receptor expressed by …; test: FACS, platelets, donor D005, 1/10x
Method: as §1, §2

[19] = biological target: T1, human transferrin receptor expressed by …; test: FACS, platelets, donor D014, 1/10x
Method: as §1, §2

[20] = biological target: T1, human transferrin receptor expressed by …; test: FACS, lymphocytes, donor D016, 1/10x
Method: as §1, §2

T1 sequence (P02786 whole entry G142S): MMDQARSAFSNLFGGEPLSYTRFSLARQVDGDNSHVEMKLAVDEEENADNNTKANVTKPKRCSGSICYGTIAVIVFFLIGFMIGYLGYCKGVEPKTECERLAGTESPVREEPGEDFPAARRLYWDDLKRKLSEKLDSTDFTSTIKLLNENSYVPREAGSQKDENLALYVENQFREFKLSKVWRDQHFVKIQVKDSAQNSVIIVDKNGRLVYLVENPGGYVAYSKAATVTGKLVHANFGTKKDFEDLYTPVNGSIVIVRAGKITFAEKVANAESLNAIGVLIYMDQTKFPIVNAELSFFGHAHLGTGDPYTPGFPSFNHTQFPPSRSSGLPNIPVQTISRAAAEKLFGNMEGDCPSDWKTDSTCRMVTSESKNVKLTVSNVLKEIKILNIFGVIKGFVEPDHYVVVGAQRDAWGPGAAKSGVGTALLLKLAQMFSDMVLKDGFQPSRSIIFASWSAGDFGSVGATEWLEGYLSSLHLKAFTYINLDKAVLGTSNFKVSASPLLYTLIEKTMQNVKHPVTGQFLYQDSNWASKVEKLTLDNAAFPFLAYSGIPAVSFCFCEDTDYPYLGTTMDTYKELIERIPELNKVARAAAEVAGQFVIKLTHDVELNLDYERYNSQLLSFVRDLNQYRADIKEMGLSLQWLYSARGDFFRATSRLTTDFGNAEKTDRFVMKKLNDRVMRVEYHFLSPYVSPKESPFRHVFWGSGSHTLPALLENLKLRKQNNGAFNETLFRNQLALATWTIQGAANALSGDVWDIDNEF
T2 sequence (P02786 whole entry G142S): as above
Sequence of human transferrin receptor expressed by nonhematopoietic cancer cells (human) (P02786 whole entry G142S): as above

Binder | MFI [1] | percentage of Annexin V positive and/or PI positive cells; COLO205; 1/2X (IgM 19.1) [2] | MFI [3] | MFI [4] | MFI [5] | % positive cell binding [6] | % of gated cells [7] | % positive cell binding [8] | % positive cell binding [9] | % positive cell binding [10] | % of gated cells [11] | % positive cell binding [12] | % positive cell binding [13] | % positive cell binding [14] | % positive cell binding [15] | % positive cell binding [16] | % positive cell binding [17] | % positive cell binding [18] | % positive cell binding [19] | % positive cell binding [20] | other results
B1 | 823 MFI | 50.9% | 3900 MFI | 2940 MFI | 4910 MFI | 1% | < 1% | 1% | 1% | < 1% | < 1% | < 1% | < 1% | < 1% | 1% | < 1% | 4% | < 1% | < 1% | 1% | percentage of Annexin V positive and/or PI positive cells; COLO205; 1/6X (IgM 19.1) [2]: 42.2%; percentage of Annexin V positive and/or PI positive cells; COLO205; 1/18X (IgM 19.1) [2]: 22.9%; percentage of Annexin V positive and/or PI positive cells; DLD1; 1/2X (IgM 24.3) [2]: 50.6%; percentage of Annexin V positive and/or PI positive cells; DLD1; 1/6X (IgM 24.3) [2]: 42.3%; percentage of Annexin V positive and/or PI positive cells; DLD1; 1/18X (IgM 24.3) [2]: 38.9%; percentage of Annexin V positive and/or PI positive cells; H358; 1/2X (IgM 31.8) [2]: 50.7%; percentage of Annexin V positive and/or PI positive cells; H358; 1/6X (IgM 31.8) [2]: 49%; percentage of Annexin V positive and/or PI positive cells; H358; 1/18X (IgM 31.8) [2]: 46.9%; percentage of Annexin V positive and/or PI positive cells; Panc 02.03B; 1/2X (IgM 19.0) [2]: 46.7%; percentage of Annexin V positive and/or PI positive cells; Panc 02.03B; 1/6X (IgM 19.0) [2]: 28.7%; percentage of Annexin V positive and/or PI positive cells; Panc 02.03B; 1/18X (IgM 19.0) [2]: 24.5%; percentage of Annexin V positive and/or PI positive cells; SNU-16; 1/2X (IgM 30.0) [2]: 40.2%; percentage of Annexin V positive and/or PI positive cells; SNU-16; 1/6X (IgM 30.0) [2]: 37.2%; percentage of Annexin V positive and/or PI positive cells; SNU-16; 1/18X (IgM 30.0) [2]: 34.8%
B2 | 234 MFI | – | 104 MFI | 96 MFI | 314 MFI | 3% | 1% | 1% | 1% | < 1% | < 1% | 1% | < 1% | 1% | 1% | < 1% | 3% | < 1% | < 1% | 1% | percentage of Annexin V positive and/or PI positive cells; DU145; 1/2X (IgM 19.5) [2]: 31%; percentage of Annexin V positive and/or PI positive cells; DU145; 1/6X (IgM 19.5) [2]: 35.4%; percentage of Annexin V positive and/or PI positive cells; DU145; 1/18X (IgM 19.5) [2]: 23.6%
B3 | 942 MFI | 80.3% | 2690 MFI | 4600 MFI | 4670 MFI | 1% | 1% | < 1% | 1% | < 1% | < 1% | < 1% | < 1% | < 1% | < 1% | < 1% | 4% | < 1% | < 1% | 1% | percentage of Annexin V positive and/or PI positive cells; COLO205; 1/6X (IgM 19.1) [2]: 25.2%; percentage of Annexin V positive and/or PI positive cells; COLO205; 1/18X (IgM 19.1) [2]: 18.6%; percentage of Annexin V positive and/or PI positive cells; DLD1; 1/2X (IgM 24.3) [2]: 42.2%; percentage of Annexin V positive and/or PI positive cells; DLD1; 1/6X (IgM 24.3) [2]: 38.6%; percentage of Annexin V positive and/or PI positive cells; DLD1; 1/18X (IgM 24.3) [2]: 37.1%; percentage of Annexin V positive and/or PI positive cells; H358; 1/2X (IgM 31.8) [2]: 70.8%; percentage of Annexin V positive and/or PI positive cells; H358; 1/6X (IgM 31.8) [2]: 70.1%; percentage of Annexin V positive and/or PI positive cells; H358; 1/18X (IgM 31.8) [2]: 63.9%; percentage of Annexin V positive and/or PI positive cells; Pan 02.03B; 1/2X (IgM 16.9) [2]: 31.5%; percentage of Annexin V positive and/or PI positive cells; Pan 02.03B; 1/6X (IgM 16.9) [2]: 20.5%; percentage of Annexin V positive and/or PI positive cells; Pan 02.03B; 1/18X (IgM 16.9) [2]: 20.5%; percentage of Annexin V positive and/or PI positive cells; SNU-16; 1/2X (IgM 30.0) [2]: 46.6%; percentage of Annexin V positive and/or PI positive cells; SNU-16; 1/6X (IgM 30.0) [2]: 43.5%; percentage of Annexin V positive and/or PI positive cells; SNU-16; 1/18X (IgM 30.0) [2]: 36.6%; percentage of Annexin V positive and/or PI positive cells; SU.86.86; 1/2X (IgM 12.1) [2]: 41.3%; percentage of Annexin V positive and/or PI positive cells; SU.86.86; 1/6X (IgM 12.1) [2]: 29.3%; percentage of Annexin V positive and/or PI positive cells; SU.86.86; 1/18X (IgM 12.1) [2]: 23.4%
